{"source": "paper PMC3103538", "origin": "cited, not measured here", "key": {"Lys28": {"target": "Lys28 (UniProt position 276, VARLKKLVGER)"}, "Nterm0": {"target": "Nterm0 (UniProt position 248, RARKLQRMKQL)"}, "Cterm32": {"target": "Cterm32 (UniProt position 280, KKLVGER----)"}, "Lys8": {"target": "Lys8 (UniProt position 256, KQLEDKVEELL)"}, "Tyr17": {"target": "Tyr17 (UniProt position 265, LLSKNYHLENE)"}, "Glu22": {"target": "Glu22 (UniProt position 270, YHLENEVARLK)"}, "Lys3": {"target": "Lys3 (UniProt position 251, KLQSMKQLEDK)"}, "Asp7": {"target": "Asp7 (UniProt position 255, MKQLEDKVEEL)"}, "Glu11": {"target": "Glu11 (UniProt position 259, EDKVEELLSKN)"}, "Glu20": {"target": "Glu20 (UniProt position 268, KNYHLENEVAR)"}, "Glu10": {"target": "Glu10 (UniProt position 258, LEDKVEELLSK)"}, "His18": {"target": "His18 (UniProt position 266, LSKNYHLENEV)"}, "Lys27": {"target": "Lys27 (UniProt position 275, EVARLKKLVGE)"}, "Glu32": {"target": "Glu32 (UniProt position 280, KKLVGER----)"}, "Glu6": {"target": "Glu6 (UniProt position 254, SMKQLEDKVEE)"}, "Lys15": {"target": "Lys15 (UniProt position 263, EELLSKNYHLE)"}}, "data": [{"substance": "GCN4 leucine zipper (33-residue fragment, GCN4p1-type) (Saccharomyces cerevisiae; R1S; insertion of Gly0 before residue 1 (Arg1 substituted by the dipeptide Gly0-Ser1))", "values": [{"measurement": "pKa", "setting": "Lys28", "value": 10.64}, {"measurement": "pKa", "setting": "Nterm0", "value": 7.88}, {"measurement": "pKa", "setting": "Cterm32", "value": 4.03}, {"measurement": "pKa", "setting": "Lys8", "value": 11.26}, {"measurement": "pKa", "setting": "Tyr17", "value": 9.82}, {"measurement": "pKa", "setting": "Glu22", "value": 4.2}, {"measurement": "pKa", "setting": "Lys3", "value": 10.78}, {"measurement": "pKa", "setting": "Asp7", "value": 3.48}, {"measurement": "pKa", "setting": "Glu11", "value": 4.05}, {"measurement": "pKa", "setting": "Glu20", "value": 4.38}, {"measurement": "pKa", "setting": "Glu10", "value": 3.94}, {"measurement": "pKa", "setting": "His18", "value": 6.24}, {"measurement": "pKa", "setting": "Lys27", "value": 11.1}, {"measurement": "pKa", "setting": "Glu32", "value": 4.62}, {"measurement": "pKa", "setting": "Glu6", "value": 4.6}, {"measurement": "pKa", "setting": "Lys15", "value": 10.62}]}]}
